From patent publication EP4755449A2 (CHUGAI SEIYAKU KABUSHIKI KAISHA, dated 2026)
Residue numbers refer to the chain shown, from its start. Numbers in names are those of the source.

T1: human latent myostatin (human, UniProt O14793 25-266; O14793 267-375)
T1 construct: non-covalent complex of two propeptides and the mature homodimer; also called human myostatin latent form
T1 sequence 1: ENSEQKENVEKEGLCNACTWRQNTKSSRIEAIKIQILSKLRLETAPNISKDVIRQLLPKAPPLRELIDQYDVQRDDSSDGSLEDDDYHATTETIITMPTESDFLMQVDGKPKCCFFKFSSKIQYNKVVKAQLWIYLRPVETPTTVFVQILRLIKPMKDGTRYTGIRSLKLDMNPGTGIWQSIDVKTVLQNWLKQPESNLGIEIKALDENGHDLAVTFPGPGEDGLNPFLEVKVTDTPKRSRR
T1 sequence 2: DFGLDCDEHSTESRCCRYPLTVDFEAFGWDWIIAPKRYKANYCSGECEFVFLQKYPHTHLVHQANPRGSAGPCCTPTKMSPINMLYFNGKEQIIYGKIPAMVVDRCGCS

T2: cynomolgus monkey latent myostatin (cynomolgus monkey, UniProt Q95J86 25-266; Q95J86 267-375, limits assumed)
T2 construct: also called cyno latent myostatin
T2 sequence 1: T1 sequence 1 with V52A
T2 sequence 2: T1 sequence 2

T3: mouse latent myostatin (mouse, UniProt O08689 26-267; O08689 268-376)
T3 sequence 1: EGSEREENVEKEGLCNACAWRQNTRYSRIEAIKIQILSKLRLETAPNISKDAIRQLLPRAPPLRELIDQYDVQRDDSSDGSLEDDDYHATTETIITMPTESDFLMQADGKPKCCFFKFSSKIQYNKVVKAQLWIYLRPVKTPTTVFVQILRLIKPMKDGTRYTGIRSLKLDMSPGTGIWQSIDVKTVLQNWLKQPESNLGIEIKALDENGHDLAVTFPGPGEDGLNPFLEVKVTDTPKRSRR
T3 sequence 2: T1 sequence 2

T4: human Fc gamma RIIb extracellular domain, His-tagged (human, UniProt P31994 43-217)
T4 construct: also called FcgRIIb
T4 sequence: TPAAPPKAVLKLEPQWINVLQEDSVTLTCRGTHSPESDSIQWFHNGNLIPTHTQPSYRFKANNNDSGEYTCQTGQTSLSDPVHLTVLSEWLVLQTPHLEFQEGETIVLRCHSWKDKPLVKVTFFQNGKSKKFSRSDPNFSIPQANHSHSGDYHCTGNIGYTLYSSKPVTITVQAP

B1: GpH7-B3 G237Y/GpL16-k0 (antibody, human IgG1, kappa)
heavy: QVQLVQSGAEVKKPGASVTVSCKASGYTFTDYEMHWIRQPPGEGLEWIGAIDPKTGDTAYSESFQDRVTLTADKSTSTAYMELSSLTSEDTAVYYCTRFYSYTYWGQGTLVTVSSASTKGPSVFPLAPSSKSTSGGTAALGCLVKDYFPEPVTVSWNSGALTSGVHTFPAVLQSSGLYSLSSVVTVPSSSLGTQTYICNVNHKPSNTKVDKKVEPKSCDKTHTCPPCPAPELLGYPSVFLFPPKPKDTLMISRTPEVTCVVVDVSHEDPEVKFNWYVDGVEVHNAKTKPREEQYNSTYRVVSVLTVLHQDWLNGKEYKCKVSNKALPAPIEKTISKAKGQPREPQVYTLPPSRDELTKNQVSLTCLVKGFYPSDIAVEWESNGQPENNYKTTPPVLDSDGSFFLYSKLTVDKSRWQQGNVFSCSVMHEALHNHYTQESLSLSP
light: DIVMTQSPLSLPVTPGEPASISCQASESLVHSNRNTYLHWYLQKPGQSPQLLIYKVSNRFSGVPDRFSGSGSGTDFTLKISRVEAEDVGVYYCSQNTHVPPTFGQGTKVEIERTVAAPSVFIFPPSDEQLKSGTASVVCLLNNFYPREAKVQWKVDNALQSGNSQESVTEQDSKDSTYSLSSTLTLSKADYEKHKVYACEVTHQGLSSPVTKSFNRGEC
notes: copies: 2 + 2
B2: GpH7-B3 N325L/GpL16-k0 (antibody, human IgG1, kappa)
heavy: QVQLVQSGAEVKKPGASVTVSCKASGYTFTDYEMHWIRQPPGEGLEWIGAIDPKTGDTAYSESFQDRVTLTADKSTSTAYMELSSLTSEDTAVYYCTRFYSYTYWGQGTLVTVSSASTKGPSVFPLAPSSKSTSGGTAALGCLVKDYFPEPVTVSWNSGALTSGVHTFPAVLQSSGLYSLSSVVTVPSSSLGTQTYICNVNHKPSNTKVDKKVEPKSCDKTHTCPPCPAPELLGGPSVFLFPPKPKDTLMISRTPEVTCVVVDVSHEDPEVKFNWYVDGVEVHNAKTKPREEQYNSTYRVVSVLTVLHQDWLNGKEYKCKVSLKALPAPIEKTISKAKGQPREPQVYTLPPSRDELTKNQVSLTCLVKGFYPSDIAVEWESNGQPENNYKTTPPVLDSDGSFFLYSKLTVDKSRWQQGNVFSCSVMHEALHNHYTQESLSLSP
light: B1 light
notes: copies: 2 + 2
B3: MS_M103205H1046-SG1/M103202L889-SK1 (antibody, human IgG1, kappa, V domains shown)
VH: QVTLKESGPVLVKPTETLTLTCTVSGIDLSHTDISWVRQAPGKGLEWVGIISYAGKTYYASWAKKRLTISKDTSKNQVVLTMTNMDPVDTATYYCARGVPAYSHGGDLWGQGTLVTVSS
VL: DIVMTQSPATLSLSPGERATLSCTSSQSVYHANWLSWFQQKPGQPPKLLIYWASTLAYGVPSRFSGSGSGTDFTLTISSLQPEDAATYYCAGGYGGGRYAFGQGTKVEIKR
notes: also called MS1032LO10-SG1
B4: MS_M103205H1047-SG1/M103202L889-SK1 (antibody, human IgG1, kappa, V domains shown)
VH: B3 VH with T57K, K65G
VL: B3 VL
notes: also called MS1032LO11-SG1
B5: MS_M103205H1057-SG1/M103202L889-SK1 (antibody, human IgG1, kappa, V domains shown)
VH: B3 VH with K56S, T57K, Y59K, K65G
VL: B3 VL
notes: also called MS1032LO12-SG1
B6: MS_M103245H795-SG1/M103202L1045-SK1 (antibody, human IgG1, kappa, V domains shown)
VH: B3 VH with T23K, T32D, G49S, K56S, K65G
VL: B3 VL with S25T, A32E
notes: also called MS1032LO21-SG1
B7: MS_M103245H1233-SG1/M103202L1045-SK1 (antibody, human IgG1, kappa, V domains shown)
VH: B3 VH with T23K, T32E, G49S, K56S, K65G
VL: B3 VL with S25T, A32E
notes: also called MS1032LO23-SG1
B8: MS_M103240H795-SG1/M103202L1045-SK1 (antibody, human IgG1, kappa)
heavy: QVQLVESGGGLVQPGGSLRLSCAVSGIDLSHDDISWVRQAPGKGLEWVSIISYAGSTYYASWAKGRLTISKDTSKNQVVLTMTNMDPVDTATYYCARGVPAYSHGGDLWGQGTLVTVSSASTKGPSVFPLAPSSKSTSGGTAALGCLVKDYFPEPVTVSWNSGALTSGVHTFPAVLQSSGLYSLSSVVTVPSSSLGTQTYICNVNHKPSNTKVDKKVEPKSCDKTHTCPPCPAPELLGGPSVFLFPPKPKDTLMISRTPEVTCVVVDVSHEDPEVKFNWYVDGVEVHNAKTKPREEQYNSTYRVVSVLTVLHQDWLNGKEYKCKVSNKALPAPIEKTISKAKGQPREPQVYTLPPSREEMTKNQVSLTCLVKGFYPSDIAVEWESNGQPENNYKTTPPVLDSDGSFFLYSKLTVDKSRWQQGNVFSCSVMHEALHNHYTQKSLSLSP
light: DIVMTQSPATLSLSPGERATLSCTTSQSVYHENWLSWFQQKPGQPPKLLIYWASTLAYGVPSRFSGSGSGTDFTLTISSLQPEDAATYYCAGGYGGGRYAFGQGTKVEIKRTVAAPSVFIFPPSDEQLKSGTASVVCLLNNFYPREAKVQWKVDNALQSGNSQESVTEQDSKDSTYSLSSTLTLSKADYEKHKVYACEVTHQGLSSPVTKSFNRGEC
notes: also called MS1032LO19-SG1
B9: MS_M103240H1246-SG1/M103202L1045-SK1 (antibody, human IgG1, kappa, V domains shown)
VH: QVQLVESGGGLVQPGGSLRLSCAVSGIDLSHEDISWVRQAPGKGLEWVSIISYAGSKYYASWAKGRLTISKDTSKNQVVLTMTNMDPVDTATYYCARGVPAYSHGGDLWGQGTLVTVSS
VL: B3 VL with S25T, A32E
notes: also called MS1032LO25-SG1
B10: MS1032LO06-P1499m (antibody, human IgG1, kappa)
heavy: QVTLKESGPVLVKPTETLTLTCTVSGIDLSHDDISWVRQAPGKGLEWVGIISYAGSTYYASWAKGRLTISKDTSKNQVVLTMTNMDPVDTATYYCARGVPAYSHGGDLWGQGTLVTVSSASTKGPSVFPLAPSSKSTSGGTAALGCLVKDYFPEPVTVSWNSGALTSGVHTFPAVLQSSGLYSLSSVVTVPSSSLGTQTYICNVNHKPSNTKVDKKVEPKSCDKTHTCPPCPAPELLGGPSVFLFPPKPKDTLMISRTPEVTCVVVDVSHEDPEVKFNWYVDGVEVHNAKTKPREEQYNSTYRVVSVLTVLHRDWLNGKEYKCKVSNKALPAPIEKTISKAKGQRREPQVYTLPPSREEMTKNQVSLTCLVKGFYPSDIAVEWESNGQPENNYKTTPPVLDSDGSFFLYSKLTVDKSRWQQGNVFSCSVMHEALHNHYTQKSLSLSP
light: B8 light with T25S, E32A
B11: MS1032LO06-P1540m (antibody, human IgG1, kappa)
heavy: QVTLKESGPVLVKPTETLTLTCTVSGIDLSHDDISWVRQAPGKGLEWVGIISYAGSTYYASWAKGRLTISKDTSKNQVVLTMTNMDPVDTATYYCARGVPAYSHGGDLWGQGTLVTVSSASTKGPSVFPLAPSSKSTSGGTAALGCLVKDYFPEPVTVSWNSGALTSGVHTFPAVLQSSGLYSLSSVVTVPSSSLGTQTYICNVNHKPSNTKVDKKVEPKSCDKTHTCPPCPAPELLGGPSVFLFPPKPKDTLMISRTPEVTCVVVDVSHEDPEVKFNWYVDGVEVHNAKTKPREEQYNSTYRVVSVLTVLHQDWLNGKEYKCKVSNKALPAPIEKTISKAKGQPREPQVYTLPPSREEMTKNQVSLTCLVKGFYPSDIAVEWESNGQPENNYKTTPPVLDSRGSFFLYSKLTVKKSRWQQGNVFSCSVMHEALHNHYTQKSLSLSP
light: B8 light with T25S, E32A
notes: copies: 2 + 2
B12: MS103205H795-SG141/M103202L889-SK1 (antibody, human IgG1, kappa)
heavy: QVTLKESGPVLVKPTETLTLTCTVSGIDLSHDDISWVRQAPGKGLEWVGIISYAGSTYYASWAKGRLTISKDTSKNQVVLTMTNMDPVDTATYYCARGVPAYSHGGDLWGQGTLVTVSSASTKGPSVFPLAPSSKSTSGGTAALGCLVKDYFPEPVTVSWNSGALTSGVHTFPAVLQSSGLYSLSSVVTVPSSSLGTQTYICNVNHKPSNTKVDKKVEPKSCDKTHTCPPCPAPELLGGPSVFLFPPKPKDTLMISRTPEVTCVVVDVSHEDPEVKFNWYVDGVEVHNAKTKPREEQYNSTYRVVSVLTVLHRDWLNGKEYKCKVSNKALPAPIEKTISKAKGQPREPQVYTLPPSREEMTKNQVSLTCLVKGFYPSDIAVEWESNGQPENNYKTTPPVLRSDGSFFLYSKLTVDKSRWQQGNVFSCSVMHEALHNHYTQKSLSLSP
light: B8 light with T25S, E32A
notes: copies: 2 + 2
B13: Ab003 (M103205H009/M103202L000) (antibody, V domains shown)
VH: B3 VH with H31S, T32Y, Y53H, K56S, K65G, H104T
VL: B3 VL with T24Q, H31D, A32N, Y58S, R98L
notes: variant of MS1032LO00-SG1
B14: Ab004 (M103205H026/M103202L000) (antibody, V domains shown)
VH: B3 VH with H31S, T32Y, K56S, K65G, Y102H, H104T
VL: B3 VL with T24Q, H31D, A32N, Y58S, R98L
notes: variant of MS1032LO00-SG1
B15: Ab005 (M103205H028/M103202L000) (antibody, V domains shown)
VH: B3 VH with H31S, T32Y, K56S, K65G
VL: B3 VL with T24Q, H31D, A32N, Y58S, R98L
notes: variant of MS1032LO00-SG1
B16: Ab006 (M103205H000/M103202L008) (antibody, V domains shown)
VH: B3 VH with H31S, T32Y, K56S, K65G, H104T
VL: B3 VL with T24Q, A32N, Y58S, R98L
notes: variant of MS1032LO00-SG1
B17: Ab007 (M103205H028/M103202L008) (antibody, V domains shown)
VH: B3 VH with H31S, T32Y, K56S, K65G
VL: B3 VL with T24Q, A32N, Y58S, R98L
notes: variant of MS1032LO00-SG1

Biological target: T5, human Fc gamma RIIIaV extracellular domain, His-tagged (human, UniProt P08637 17-208)
T5 construct: also called FcgRIIIaV
Test: SPR 25C

T5 sequence (P08637 17-208 F176V): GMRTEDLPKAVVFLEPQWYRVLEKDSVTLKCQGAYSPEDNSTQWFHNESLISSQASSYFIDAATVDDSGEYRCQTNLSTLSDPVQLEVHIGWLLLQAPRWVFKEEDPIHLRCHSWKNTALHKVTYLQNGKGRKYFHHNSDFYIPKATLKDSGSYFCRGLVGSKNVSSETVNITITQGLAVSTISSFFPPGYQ

Binder	relative binding [parent B3=100]
B1	0
B2	0

Biological target: T1, human latent myostatin
Test: SPR 37C

Binder	ratio of KD at pH 5.8/pH7.4
B3	125
B4	341
B5	209
B6	204
B7	62
B8	168
B9	92

Biological target: T2, cynomolgus monkey latent myostatin
Test: SPR 37C

Binder	ratio of KD at pH 5.8/pH7.4
B3	38
B4	87
B5	73
B6	100
B7	26
B8	109
B9	41

Biological target: T3, mouse latent myostatin
Test: SPR 37C

Binder	ratio of KD at pH 5.8/pH7.4
B3	35
B4	81
B5	60
B6	113
B7	24
B8	106
B9	38

Biological target: T4, human Fc gamma RIIb extracellular …
Test: SPR 25C, antigen-antibody complex injected over captured His-tagged receptor

Binder	binding result
B10	binds
B11	binds
B12	binds

Biological target: T1, human latent myostatin
Test: SPR 37C pH5.8; pH 5.8

Binder	Kd [nM]
B3	43.8
B4	143
B5	84.9
B6	52.3
B7	16.1
B8	45.8
B9	25.5

Biological target: T2, cynomolgus monkey latent myostatin
Test: SPR 37C pH5.8; pH 5.8

Binder	Kd [nM]
B3	16.1
B4	43.5
B5	35.8
B6	31
B7	7.71
B8	35.6
B9	14.1

Biological target: T3, mouse latent myostatin
Test: SPR 37C pH5.8; pH 5.8

Binder	Kd [nM]
B3	10.9
B4	29.2
B5	24.8
B6	29.4
B7	6.4
B8	28.7
B9	9.88

Biological target: T1, human latent myostatin
Test: SPR, dissociation phase at pH5.8

Binder	koff [s⁻¹]
B13	0.00088
B14	0.000186
B15	7.63e-05
B16	8.58e-05
B17	0.000415

Biological target: T1, human latent myostatin
Test: SPR 37C pH7.4; pH 7.4

Binder	Kd [nM]
B3	0.351
B4	0.419
B5	0.407
B6	0.257
B7	0.26
B8	0.273
B9	0.276

Biological target: T2, cynomolgus monkey latent myostatin
Test: SPR 37C pH7.4; pH 7.4

Binder	Kd [nM]
B3	0.419
B4	0.502
B5	0.492
B6	0.309
B7	0.299
B8	0.326
B9	0.34

Biological target: T3, mouse latent myostatin
Test: SPR 37C pH7.4; pH 7.4

Binder	Kd [nM]
B3	0.314
B4	0.362
B5	0.413
B6	0.261
B7	0.266
B8	0.271
B9	0.259
